Experimental data published in US20050042227A1.

How the values were obtained:
Assay in all cases: cell-based or functional assay
[1] = biological target: LRP1 receptors on GM244 human Pompe fibroblasts (human) (UniProt Q07954)
LRP = biological target: LRP
[2] = biological target: mannose-6-phosphate receptor on GM244 human fibroblasts (human) (UniProt O00264)
mannose-6-phosphate receptor on GM244 human fibroblasts (human), sequence (O00264 whole entry): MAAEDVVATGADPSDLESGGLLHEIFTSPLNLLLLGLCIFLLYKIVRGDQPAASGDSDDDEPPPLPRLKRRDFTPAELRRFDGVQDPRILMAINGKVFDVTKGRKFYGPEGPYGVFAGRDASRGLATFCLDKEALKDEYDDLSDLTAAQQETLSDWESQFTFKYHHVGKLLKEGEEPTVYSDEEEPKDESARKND

LRP1 receptors on GM244 human Pompe fibroblasts (human), sequence (Q07954 20-4544): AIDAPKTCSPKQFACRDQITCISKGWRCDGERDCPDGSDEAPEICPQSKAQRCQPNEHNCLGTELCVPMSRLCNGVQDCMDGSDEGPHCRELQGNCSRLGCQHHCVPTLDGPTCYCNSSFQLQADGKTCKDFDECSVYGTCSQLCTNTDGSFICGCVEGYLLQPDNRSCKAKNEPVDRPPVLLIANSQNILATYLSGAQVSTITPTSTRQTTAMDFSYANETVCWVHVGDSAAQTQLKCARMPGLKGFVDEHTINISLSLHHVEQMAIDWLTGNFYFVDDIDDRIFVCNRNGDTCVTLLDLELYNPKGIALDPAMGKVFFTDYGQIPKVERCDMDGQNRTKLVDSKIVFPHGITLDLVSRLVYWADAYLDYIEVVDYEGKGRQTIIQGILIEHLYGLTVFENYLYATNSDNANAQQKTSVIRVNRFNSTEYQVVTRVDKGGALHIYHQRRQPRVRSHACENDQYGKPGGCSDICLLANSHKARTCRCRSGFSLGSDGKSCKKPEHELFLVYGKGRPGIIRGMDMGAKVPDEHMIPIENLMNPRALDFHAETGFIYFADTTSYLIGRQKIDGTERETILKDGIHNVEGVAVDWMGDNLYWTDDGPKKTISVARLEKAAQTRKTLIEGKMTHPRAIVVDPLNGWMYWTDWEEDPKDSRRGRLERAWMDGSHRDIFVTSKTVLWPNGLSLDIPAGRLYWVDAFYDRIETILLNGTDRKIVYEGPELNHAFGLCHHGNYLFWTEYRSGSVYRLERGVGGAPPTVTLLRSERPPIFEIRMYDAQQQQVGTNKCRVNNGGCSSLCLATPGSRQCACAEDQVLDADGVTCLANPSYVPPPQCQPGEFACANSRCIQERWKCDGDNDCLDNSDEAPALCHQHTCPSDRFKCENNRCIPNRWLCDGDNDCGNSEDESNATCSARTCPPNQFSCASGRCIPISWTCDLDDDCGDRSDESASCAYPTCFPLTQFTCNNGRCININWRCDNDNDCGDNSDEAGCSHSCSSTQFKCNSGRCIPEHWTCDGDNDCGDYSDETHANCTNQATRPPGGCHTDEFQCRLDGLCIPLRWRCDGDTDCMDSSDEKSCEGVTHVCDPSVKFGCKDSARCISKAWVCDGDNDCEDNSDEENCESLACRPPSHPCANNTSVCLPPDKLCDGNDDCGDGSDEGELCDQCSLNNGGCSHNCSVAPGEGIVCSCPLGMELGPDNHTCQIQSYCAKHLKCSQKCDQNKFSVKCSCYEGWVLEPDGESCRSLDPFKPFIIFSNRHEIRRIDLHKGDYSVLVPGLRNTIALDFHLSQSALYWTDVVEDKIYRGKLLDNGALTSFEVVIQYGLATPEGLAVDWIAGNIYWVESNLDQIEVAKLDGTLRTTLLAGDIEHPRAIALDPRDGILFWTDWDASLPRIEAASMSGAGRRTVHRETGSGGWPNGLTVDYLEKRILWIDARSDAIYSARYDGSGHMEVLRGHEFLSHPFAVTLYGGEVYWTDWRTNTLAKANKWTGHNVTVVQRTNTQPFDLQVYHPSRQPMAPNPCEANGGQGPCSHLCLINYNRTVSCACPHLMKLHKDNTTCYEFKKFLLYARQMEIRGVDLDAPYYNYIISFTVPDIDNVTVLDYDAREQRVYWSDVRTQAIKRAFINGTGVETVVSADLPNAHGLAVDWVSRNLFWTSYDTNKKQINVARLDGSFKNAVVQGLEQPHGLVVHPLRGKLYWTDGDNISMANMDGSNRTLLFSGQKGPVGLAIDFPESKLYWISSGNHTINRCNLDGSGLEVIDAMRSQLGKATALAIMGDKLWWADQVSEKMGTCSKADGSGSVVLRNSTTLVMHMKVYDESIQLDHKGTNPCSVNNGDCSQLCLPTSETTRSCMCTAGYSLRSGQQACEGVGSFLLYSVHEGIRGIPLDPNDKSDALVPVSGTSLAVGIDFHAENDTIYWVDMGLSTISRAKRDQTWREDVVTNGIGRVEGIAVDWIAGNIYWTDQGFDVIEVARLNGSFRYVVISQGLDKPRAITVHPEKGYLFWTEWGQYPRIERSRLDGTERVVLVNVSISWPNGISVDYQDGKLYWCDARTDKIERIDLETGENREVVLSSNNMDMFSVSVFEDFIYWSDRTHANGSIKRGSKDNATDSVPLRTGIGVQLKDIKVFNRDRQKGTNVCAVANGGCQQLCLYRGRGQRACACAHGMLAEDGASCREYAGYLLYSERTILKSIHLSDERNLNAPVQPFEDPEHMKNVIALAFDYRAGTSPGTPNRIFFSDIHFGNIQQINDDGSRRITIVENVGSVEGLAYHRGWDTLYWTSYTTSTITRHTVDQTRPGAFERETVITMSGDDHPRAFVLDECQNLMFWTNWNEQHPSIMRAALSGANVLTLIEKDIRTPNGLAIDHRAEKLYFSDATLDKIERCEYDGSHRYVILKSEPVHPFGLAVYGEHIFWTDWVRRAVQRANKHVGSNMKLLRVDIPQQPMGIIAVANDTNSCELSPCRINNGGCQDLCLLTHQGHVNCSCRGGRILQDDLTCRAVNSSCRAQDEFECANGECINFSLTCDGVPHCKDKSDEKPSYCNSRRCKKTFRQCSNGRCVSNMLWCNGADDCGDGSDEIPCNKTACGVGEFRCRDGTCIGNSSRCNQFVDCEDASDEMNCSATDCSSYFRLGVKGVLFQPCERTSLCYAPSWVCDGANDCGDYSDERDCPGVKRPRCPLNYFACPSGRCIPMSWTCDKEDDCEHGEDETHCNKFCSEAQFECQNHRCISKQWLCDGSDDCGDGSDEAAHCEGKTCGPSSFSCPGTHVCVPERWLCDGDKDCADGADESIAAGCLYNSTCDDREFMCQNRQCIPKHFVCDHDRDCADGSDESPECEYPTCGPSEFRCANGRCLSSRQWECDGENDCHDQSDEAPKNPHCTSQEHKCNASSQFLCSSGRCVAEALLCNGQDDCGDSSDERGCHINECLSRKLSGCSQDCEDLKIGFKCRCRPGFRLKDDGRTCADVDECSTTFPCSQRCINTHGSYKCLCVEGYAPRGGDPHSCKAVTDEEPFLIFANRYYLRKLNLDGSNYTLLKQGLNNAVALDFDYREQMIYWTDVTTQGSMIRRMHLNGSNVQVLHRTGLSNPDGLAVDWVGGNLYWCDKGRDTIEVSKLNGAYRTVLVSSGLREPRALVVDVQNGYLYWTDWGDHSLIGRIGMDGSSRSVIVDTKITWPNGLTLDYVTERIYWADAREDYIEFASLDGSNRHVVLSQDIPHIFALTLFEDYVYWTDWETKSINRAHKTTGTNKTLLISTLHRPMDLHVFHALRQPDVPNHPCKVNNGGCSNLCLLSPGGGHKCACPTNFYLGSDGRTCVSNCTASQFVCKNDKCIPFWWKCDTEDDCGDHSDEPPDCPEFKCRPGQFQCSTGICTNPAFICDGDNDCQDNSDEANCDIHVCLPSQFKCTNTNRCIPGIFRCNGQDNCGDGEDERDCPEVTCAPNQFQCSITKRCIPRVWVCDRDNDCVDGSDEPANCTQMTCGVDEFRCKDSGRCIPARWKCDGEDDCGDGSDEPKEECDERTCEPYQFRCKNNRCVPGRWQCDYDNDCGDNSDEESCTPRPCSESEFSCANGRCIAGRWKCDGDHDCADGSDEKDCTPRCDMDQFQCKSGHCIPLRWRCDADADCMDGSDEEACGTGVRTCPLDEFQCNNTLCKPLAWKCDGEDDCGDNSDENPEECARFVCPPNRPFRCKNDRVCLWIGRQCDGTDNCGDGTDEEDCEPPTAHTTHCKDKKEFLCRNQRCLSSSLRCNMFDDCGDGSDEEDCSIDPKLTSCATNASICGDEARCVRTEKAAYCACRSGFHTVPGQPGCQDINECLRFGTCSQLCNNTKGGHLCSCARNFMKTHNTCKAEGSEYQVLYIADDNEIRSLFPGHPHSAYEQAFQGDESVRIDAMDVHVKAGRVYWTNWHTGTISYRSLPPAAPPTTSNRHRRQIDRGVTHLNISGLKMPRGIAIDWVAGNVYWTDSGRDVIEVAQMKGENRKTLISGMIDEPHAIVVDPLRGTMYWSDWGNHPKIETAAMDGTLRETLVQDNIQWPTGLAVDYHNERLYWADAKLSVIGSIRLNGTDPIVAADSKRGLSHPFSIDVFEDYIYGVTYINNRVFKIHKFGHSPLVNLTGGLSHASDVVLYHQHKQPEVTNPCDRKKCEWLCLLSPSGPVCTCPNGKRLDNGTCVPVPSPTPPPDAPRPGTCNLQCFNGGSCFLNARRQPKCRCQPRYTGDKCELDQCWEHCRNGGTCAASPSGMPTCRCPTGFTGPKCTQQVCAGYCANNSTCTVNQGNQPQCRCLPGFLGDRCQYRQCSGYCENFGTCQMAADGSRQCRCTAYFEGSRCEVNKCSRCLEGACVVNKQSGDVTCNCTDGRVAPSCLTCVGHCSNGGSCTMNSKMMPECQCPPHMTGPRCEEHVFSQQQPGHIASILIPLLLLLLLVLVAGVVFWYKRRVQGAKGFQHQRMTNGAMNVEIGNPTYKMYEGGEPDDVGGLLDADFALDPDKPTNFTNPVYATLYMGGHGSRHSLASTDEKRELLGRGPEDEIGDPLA

Kuptake, uptake into GM244 fibroblasts measured by GAA enzyme activity [1]: 19 nM
percent of RAP-GAA uptake into GM244 fibroblasts inhibited by free RAP [1]: 90%
uptake into GM244 fibroblasts relative to recombinant GAA (Vmax ratio) [1]: 60 fold
uptake into GM244 fibroblasts relative to recombinant GAA at 10 nM [1]: 25 fold
Kuptake ratio (fusion/enzyme), RAP-GAA against rhGAA, fibroblast (ratio (fusion/enzyme)) (LRP): 25
Uptake ratio (fusion/enzyme), RAP-GAA against rhGAA, C2C12 myoblast, 5 nM (ratio (fusion/enzyme)) (LRP): 18
Uptake ratio (fusion/enzyme), RAP-GAA against rhGAA, C6 glioma, 5 nM (ratio (fusion/enzyme)) (LRP): 8
Uptake ratio (fusion/enzyme), RAP-GAA against rhGAA, fibroblast, 5 nM (ratio (fusion/enzyme)) (LRP): 9
Uptake ratio (fusion/enzyme), RAP-GAA against rhGAA, fibroblast, 50 nM (ratio (fusion/enzyme)) (LRP): 37
Uptake ratio (fusion/enzyme), RAP-GAA against rhGAA, fibroblast, saturation (ratio (fusion/enzyme)) (LRP): 70
percent of RAP-GAA uptake into GM244 fibroblasts inhibited by mannose 6-phosphate [2]: 20%
Substance: RAP-GAA fusion (human RAP fused N-terminally to human alpha-glucosidase)
